Tests used:
[1] = molecular target: Sbi-III-IV (amino acids 150–266) (Staphylococcus aureus (entry printed for strain Newman)) (UniProt A6QJQ7)
[2] = molecular target: Sbi-E (amino acids 28–266) (Staphylococcus aureus (entry printed for strain Newman)) (UniProt A6QJQ7)

“complement Factor H (from UniProt P08603 19-1231) (natural protein)” gave an inhibition of alternative pathway-mediated lyses of rabbit erythrocytes by human serum, increasing amounts of Sbi-III/IV [1] of 600 ng and an inhibition of alternative pathway-mediated lyses of rabbit erythrocytes by human serum, increasing amounts of Sbi-E [2] of 600 ng.

— paper PMC2602735
